In the supplement of paper PMC10724198 one finds protein stability index data, which are given here for 116 sequences.

± gives the standard deviation of the averaged measurements.
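Also: PSI is a weighted mean of sequencing reads over stability bins, variants kept only with over 10 reads, mCherry proximal and sfGFP distal, peptide attached via GGGS linker.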

The test system of the data set is Saccharomyces cerevisiae. As to the kind of experiment: protein stability index of tFT-peptide fusion (C-terminal peptide) (PSI (0-1 scale)); higher = more stable (slower turnover). To be noted: genetic background: wild type; temperature: 30 C.
In the case of INNTKQSENRKS, the protein stability index is 0.701 ± 0.054. INRLKPGRGQKT registered a protein stability index of 0.658 ± 0.03.

IPDATGYGWVRH: the protein stability index came out at 0.691 ± 0.018. With IPDSSPIVPHPK the figure was 0.6722 ± 0.0065.

For IPEEHKLTWIIP, the protein stability index came out at 0.74 ± 0.067.

In the case of IPFFHVVPRPPP, the protein stability index turned out to be 0.628 ± 0.024. With IPIPLLPASSPP the figure was 0.6877 ± 0.0063; with IPKDLSRLELYR, 0.62 ± 0.071. The sequence IPPFRLLCRLRL showed a protein stability index of 0.642 ± 0.022. With IPPNPPPPNTIA the figure was 0.557 ± 0.0097; with IPPPVLPSPPSP, 0.672 ± 0.1; with IPRCSPAGVSSY, 0.696 ± 0.064. With IPTVSLLHLPPV the figure was 0.699 ± 0.047. Sequence IQKNSGHPMKEA showed a protein stability index of 0.711 ± 0.023. With IQLEFEDMERGK the figure was 0.704 ± 0.11; with IQNTERIKIQTK, 0.6791 ± 0.0034. With IRCGQFSVVSES the figure was 0.6 ± 0.028; with IRHTQVSHIIYA, 0.488 ± 0.029. IRKNWQRIGETA came in with a protein stability index of 0.662 ± 0.026. With IRLFAPVVFLPL the figure was 0.644 ± 0.054; with IRQTIEGRRLVM, 0.662 ± 0.026; with IRRTSENEEETW, 0.673 ± 0.043.

As for IRSLKTSPLMRG, the protein stability index turned out to be 0.704 ± 0.043. With IRVATIQSTMYI the figure was 0.643 ± 0.016; with IRWKEIIDKWSY, 0.844 ± 0.038; with ISCVLSTVGVGH, 0.663 ± 0.044.

As for ISHAGSVPDRSV, the protein stability index was 0.701 ± 0.04.

The sequence ISIAATPHVSQP returned a protein stability index of 0.661 ± 0.054. Turning to ISLTFNSNSKPM, the protein stability index came out at 0.687 ± 0.053.

For the sequence ISLTHAPKTGFY, the protein stability index was determined as 0.695 ± 0.008. For ISMASRAGILRG, the protein stability index was 0.686 ± 0.049. With ISMSDFRLFAIW, the protein stability index was found to be 0.6646 ± 0.0047. ISNPAVHNPAGG yielded a protein stability index of 0.641 ± 0.017. With ISRLLVLCRDLT the figure was 0.65 ± 0.033. With ISVSRLRMKDRN the figure was 0.713 ± 0.22.

Consider ISWLLSFLGVVF, for which the protein stability index came out at 0.601 ± 0.046. With ITDCAFIPLTVD the figure was 0.764 ± 0.095; with ITGGEKNKEESG, 0.698 ± 0.019. With ITIVIKQNVDKE the figure was 0.564 ± 0.016; with ITPLVQRPSSLR, 0.689 ± 0.088; with ITRSEEAKWLCA, 0.685 ± 0.045. With ITSALRYLSAVG the figure was 0.656 ± 0.022. Consider ITSITRFKVDSR, for which the protein stability index came to 0.628 ± 0.022. With ITTLRSLWVVGL the figure was 0.609 ± 0.085. With IVCGMGDKGMHE the figure was 0.698 ± 0.014; with IVGKMRRQKTKI, 0.685 ± 0.057; with IVNDEHVHTYTR, 0.743 ± 0.013. IVNNVKYKNRNR returned a protein stability index of 0.715 ± 0.071. With IVWCAINYLFRS the figure was 0.63 ± 0.054.

Take IWCSCWPGNWET: the protein stability index worked out at 0.823 ± 0.12. With IWGLDGKSISID the figure was 0.751 ± 0.061; with IWGSILGVEANV, 0.685 ± 0.039.

The sequence IWLHFKGSRSLP registered a protein stability index of 0.703 ± 0.16. With IYPPALLSSSFL the figure was 0.709 ± 0.093. With IYSGIYCVGAKH the figure was 0.666 ± 0.03; with KADVSIRYGINN, 0.714 ± 0.074; with KARIADRKMWGN, 0.684 ± 0.017.

For the sequence KASSGRASGSMA, the protein stability index was determined as 0.673 ± 0.09. With KAWGGEGRDAWG the figure was 0.702 ± 0.069. KCCRRPPPAFRS displayed a protein stability index of 0.725 ± 0.034. With KCLDSARSSVLP the figure was 0.651 ± 0.043; with KCPSLVHSNSTG, 0.71 ± 0.016. With KCSLVLTVARSY the figure was 0.609 ± 0.014; with KCVQESIIKMMI, 0.763 ± 0.15.

KDCHPVSRYVRC: the protein stability index turned out to be 0.707 ± 0.01. With KDFGYKKKNRRY the figure was 0.734 ± 0.032. With KDGGRGGLNWCV the figure was 0.745 ± 0.095; with KDNMQFLHLYAS, 0.707 ± 0.075.

In turn, KDRVGYKEIITG came in with a protein stability index of 0.695 ± 0.028. On to KEERGINNKKGK, for which the protein stability index is 0.691 ± 0.071.

KEGARGGEASRR returned a protein stability index of 0.669 ± 0.031. Turning to KEKKENKRKNTT, the protein stability index was 0.699 ± 0.051. With KEKKLKIIQKGT the figure was 0.578 ± 0.09; with KEKKQARVKKKK, 0.723 ± 0.022; with KEKRFTQKLIRA, 0.654 ± 0.095.

KENEKQRKSHKK showed a protein stability index of 0.687 ± 0.043. With KENIRPSESYKC the figure was 0.668 ± 0.05. With KEQESKAISYPV the figure was 0.718 ± 0.035; with KEQGEGKEKTDK, 0.682 ± 0.063; with KESLKDRTKINI, 0.692 ± 0.033. With KEWKSESTVLEV the figure was 0.7468 ± 0.0054; with KFASNNMFTRYV, 0.745 ± 0.012. With KFMKEITIDGLT, the protein stability index turned out to be 0.709 ± 0.055. With KFSFVVAVHAGL the figure was 0.545 ± 0.024; with KFYIIKRLSGVE, 0.64 ± 0.029; with KGEGRNRRGVPR, 0.675 ± 0.019.

In the case of KGLKRNENGTMS, the protein stability index stood at 0.638 ± 0.017. With KGQKIIKNKNPK the figure was 0.644 ± 0.038; with KGRRQPSSESVM, 0.711 ± 0.014; with KGSLVLGSKCCR, 0.681 ± 0.047.

For the sequence KGVGGSTSRGGE, the protein stability index stood at 0.666 ± 0.047.

KHKKKRTRDHEE displayed a protein stability index of 0.666 ± 0.012. The sequence KHNRISEKHQKS came in with a protein stability index of 0.643 ± 0.0095. With KHRSIRPYLKND the figure was 0.72 ± 0.037; with KHSMGSFNNILN, 0.6674 ± 0.0032; with KIDKNHGILPNY, 0.679 ± 0.035. KIEAHKKYKKHQ came in with a protein stability index of 0.726 ± 0.026. With KINAKIYGSEKG the figure was 0.654 ± 0.015. Sequence KIRKYTKGQIMQ came in with a protein stability index of 0.687 ± 0.007. With KITEKLGSPKTF the figure was 0.654 ± 0.086; with KKEKGKKEKEKR, 0.668 ± 0.056. With KKEKKIRKKTVT the figure was 0.732 ± 0.028; with KKEQIKINIKGK, 0.693 ± 0.03; with KKGACTQILQSL, 0.789 ± 0.19. With KKGKGKTETIKT the figure was 0.695 ± 0.03. Sequence KKGRRERRITNE gave a protein stability index of 0.695 ± 0.013. With KKHNGHNHQNNF the figure was 0.684 ± 0.019; with KKIDQAKETSLS, 0.68 ± 0.011.

As to KKIEKENKKEKF, the protein stability index was 0.611 ± 0.056.

Turning to KKIRKGIGNKHI, the protein stability index turned out to be 0.651 ± 0.017. With KKKEKDKKTNKP the figure was 0.684 ± 0.057; with KKKEKKKKNKLK, 0.74 ± 0.019; with KKKEKKNIHSKT, 0.646 ± 0.029. With KKKFNNFIKIIH the figure was 0.631 ± 0.027; with KKKGDAKNKKKQ, 0.714 ± 0.067; with KKKHKKKKKKKE, 0.676 ± 0.073.
